21 sequences from the supplement of paper PMC9170038 can be followed below.

The test system of the data set is K4 kissing-loop RNA reporter. The data set can be described thus: apparent KD of K4 kissing-loop reporter; higher = weaker reporter binding. To be noted: Eterna round: R107. As for the experimental part:
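RNA-MaP round R107: designed RNA switches with theophylline, tryptophan, arginine or FMN aptamers are transcribed on-chip within common flanks. They are titrated with a labelled K4 kissing-loop RNA reporter in RNA-MaP buffer (100 mM Tris pH 7.5, 80 mM KCl, 4 mM MgCl2), without ligand or with the indicated ligand. Median apparent KD per design.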

The mark [1] stands for this setting: input ligand: theophylline 20 uM.
[2] abbreviates: input ligand: tryptophan 2.4 mM.
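Also: bound reporter read as fluorescence of individual clusters on recovered sequencing chips by microscopy, with normalized cluster intensities fitted with a binding model.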

Regarding “AUAAUAUUGCGAGGAUAUCCUUCCCACGUCGAAGUACCGUGCUUGAUGGAGUGAUGUUCGAUCAGAGGAGAAGGCGCGGUGUUGU [Same State FMN B GF23]”, the “apparent KD of K4 kissing-loop reporter” value (input ligand: FMN 200 uM) came to 734 nM; the “apparent KD of K4 kissing-loop reporter” value (input ligand: arginine 13.2 mM) is 543 nM; the “apparent KD of K4 kissing-loop reporter” value (input ligand: none) amounted to 656 nM; the “apparent KD of K4 kissing-loop reporter” value under setting [1] turned out to be 611 nM; the “apparent KD of K4 kissing-loop reporter” value under setting [2] was determined as 571 nM.
On to “UUAGUCUAGAGAAGGAGCGCAGUGAUGUUGCGAAUAAUAAUAAUAAUAAAUAAAUAAUCGAUGCAGGUAGGUCGCUCUAGACAUU [AK1 Exc Arginine B]”, for which the “apparent KD of K4 kissing-loop reporter” value amounted to 217 nM (input ligand: FMN 200 uM); 422 nM (input ligand: arginine 13.2 mM); 288 nM (input ligand: none); 335 nM under setting [1]; 213 nM under setting [2].
For “GAUCCAUGACAAGGAUAUUCGCCAACGGUGCCGGAGUGAUGUUCUGCACAACAGACUACAAGUAAGGAAGAAGGUGUCAGUUACC [theeternabot_sameState_KL_FMN_B_29]”, in that order: 595 nM, 843 nM, 946 nM, 609 nM and 561 nM.
“GGAGGCCAGGCCUGCGAAGUGAUGUUUUGACGAGGACCGGUACGGCCGCCACUCGAAUGUUCUAUCAUCGUACGAACUUCUGCGU [theeternabot_exclusion_KL_Trp_A_26]”: the “apparent KD of K4 kissing-loop reporter” value (input ligand: FMN 200 uM) was found to be 593 nM; the “apparent KD of K4 kissing-loop reporter” value (input ligand: arginine 13.2 mM) was 415 nM; the “apparent KD of K4 kissing-loop reporter” value (input ligand: none) was 496 nM; the “apparent KD of K4 kissing-loop reporter” value under setting [1] came to 527 nM; the “apparent KD of K4 kissing-loop reporter” value under setting [2] was determined as 394 nM.
With “GGGUCUGUCGGAAGGAGCGCACUAUGGAGUGAUGUUCCAUGACCGCACAGCUUGCGGUCAGUGCAGGUAGGUCGCCGAUAGCUUU [Usquso]”, the “apparent KD of K4 kissing-loop reporter” value (input ligand: FMN 200 uM) came out at 277 nM; the “apparent KD of K4 kissing-loop reporter” value (input ligand: arginine 13.2 mM) turned out to be 169 nM; the “apparent KD of K4 kissing-loop reporter” value (input ligand: none) is 197 nM; the “apparent KD of K4 kissing-loop reporter” value under setting [1] is 286 nM; the “apparent KD of K4 kissing-loop reporter” value under setting [2] was determined as 164 nM.
For “CUAUGGAAACAUAGUAAUCGGGAAACCGAUACCAGUAUGGAAACAUACCCUUGGCAGCGGAAUGAUUAAACGGAGUGAUGUUCCG [Theophylline A K4 17]”, in that order: 354 nM, 243 nM, 285 nM, 237 nM and 261 nM.
As for “CUGAGCUGCAGCGAUACCAGUGUGGAGUGAUGUUCCCUGGUCCGGGCUGUUGUUCCCUUGCGCCCUUGGCAGCGCAGGAGCAGGG [Exclusion Theophylline B GF 15]”, the “apparent KD of K4 kissing-loop reporter” value is 506 nM (input ligand: FMN 200 uM); 352 nM (input ligand: arginine 13.2 mM); 422 nM (input ligand: none); 378 nM under setting [1]; 383 nM under setting [2].
For “CCCUCACGAGUGAUGUUCGUAGGGUACAGUCAGGAUAUCAUGCGGUUGAGAAGGGACAGAGAGGGCGGCCACUGGUUGCUCUUCU [Tiatesqu]” the same measures were 150 nM, 249 nM, 235 nM, 418 nM and 200 nM.
For “CGCGCGCGCCGCAAGGCGCGCGCGAACGAUACCAGUAUAUAAGAAUACCCUUGGCAGCGUAAGAAAGCUAUAGUGAUGUUGUAGA [#19 K4 Theophylline A Same State]”, in that order: 254 nM, 121 nM, 226 nM, 265 nM and 273 nM.
As to “UUAUAACCCAGUGAUGUUGGGUAGCGGCCACGAGGACCGGUACGGCCGCCACUCGAGGUUUAACCAGUGAUGUUGGACUAUAUAA [Same state Tryptophan A GF 4]”, the “apparent KD of K4 kissing-loop reporter” value (input ligand: FMN 200 uM) came to 51 nM; the “apparent KD of K4 kissing-loop reporter” value (input ligand: arginine 13.2 mM) was 35.2 nM; the “apparent KD of K4 kissing-loop reporter” value (input ligand: none) amounted to 47 nM; the “apparent KD of K4 kissing-loop reporter” value under setting [1] was found to be 34.5 nM; the “apparent KD of K4 kissing-loop reporter” value under setting [2] turned out to be 23.7 nM.
For “AAGGCCACGAGAAGGAGCGUGCUAUGGAGUGAUGUUCCAAUGUAGACCUAAGGUCUACAAGCACAGGUAGGUCGCUCGUGGUCAA [Omei KL Arginine B SS A v2]” the same measures were 102 nM, 96.9 nM, 109 nM, 100 nM and 103 nM.
Consider “GUGCGGUGGAGGUUACCGCUACUCUGAGAAGGAGCGCAGAUGACUGCAGGUAGGUCGCUUAGAGCUUGCAGUGAUGUUGCAAGUU [Anquatbiat]”, for which the “apparent KD of K4 kissing-loop reporter” value turned out to be 199 nM (input ligand: FMN 200 uM); 147 nM (input ligand: arginine 13.2 mM); 159 nM (input ligand: none); 132 nM under setting [1]; 177 nM under setting [2].
For “AAUAGGGAUAGUGAUGUUAUCCCUUAUGAUACCAGUGCCAUCGGACACCCUUGGCAGCAUACGGGCAGUGAUGUUGUCCUUGGUG [Exclusion Theophylline A GF 16]”, in that order: 106 nM, 94 nM, 101 nM, 94.8 nM and 93.8 nM.
As for “GGAUAGGAUAGAGGAUAUGGUUUAUGCAAGAAUAACUUAUCGUGUAAAUCCAUAGGGAGUGAUGUUCCAGAAGGCUGUCCUAUCG [MatMod 12 - Jieux - Exclusion - FMN B]”, the “apparent KD of K4 kissing-loop reporter” value (input ligand: FMN 200 uM) turned out to be 335 nM; the “apparent KD of K4 kissing-loop reporter” value (input ligand: arginine 13.2 mM) came to 201 nM; the “apparent KD of K4 kissing-loop reporter” value (input ligand: none) is 239 nM; the “apparent KD of K4 kissing-loop reporter” value under setting [1] turned out to be 246 nM; the “apparent KD of K4 kissing-loop reporter” value under setting [2] is 173 nM.
For “ACGCUGGUGAAUAACACUAGCGAAAAUUCGCGAGGACCGGUACGGCCGCCACUCGCUAACUGCGAGUGAUGUUCGAUAAUAAAAU [Mat - Mod of OpenEnded 3 - D8]” the same measures were 233 nM, 67.5 nM, 165 nM, 169 nM and 112 nM.
For “GCCGUACGCAUGGAUACCAGCAUUUAUGACACACUGCUAGUGAUGUUAGCUAUGCGUAUAUGCCCUUGGCAGCCAUGCGUACGGC”, in that order: 150 nM, 128 nM, 140 nM, 87.4 nM and 133 nM.
“GGAUAGGACAGAGGAUAUGGUAGUGAUGUUACCAACAGCCUACUGUCAAUAAAGACGGUUGGCUGACCAGAAGGCUGUCCUAUCG [Mod of Eli's FmnBX 26 v1]”: the “apparent KD of K4 kissing-loop reporter” value is, setting by setting: (input ligand: FMN 200 uM) 564 nM; (input ligand: arginine 13.2 mM) 132 nM; (input ligand: none) 145 nM; under setting [1], 148 nM; under setting [2], 142 nM.
As for “UGAUACCAGACUGAUACCAGCAAGUGAUGUUUGUUGAUCUAUGCAGUCAAAGACUGCUCUUGCCCUUGGCAGCAGUCUGGUAUCU [TheoBX 28 #SwitchBubble #StaticStem]”, the “apparent KD of K4 kissing-loop reporter” value reads like this: (input ligand: FMN 200 uM) 762 nM; (input ligand: arginine 13.2 mM) 640 nM; (input ligand: none) 1040 nM; under setting [1], 409 nM; under setting [2], 777 nM.
For “UUUAUAAAGUCGGCCGCCACUGGAUUUAUAUUUGUUUAGUCUGGAUCAAAGUGAUGUUUUGAGUCCAGGACCGGGACAUUUGUUA [whbob_Ex_Tryp_B_w36]”, in that order: 92.1 nM, 85.9 nM, 93.5 nM, 91.9 nM and 172 nM.
For “AACUCUCAGAUACUUGAGUGAUGUUCAGGCCGAGGACCGGUACGGCCGCCACUCGGGUCUGAGAGAGGUUAUCAAAGAUAGCCAA [Omei KL Tryp A SS A v10]” the same measures were 266 nM, 197 nM, 257 nM, 329 nM and 236 nM.
For “GCAGUGAUGUUGCUGGUGUGCAGUGGUAGUCGAGGACCGGUACGGCCGCCACUCGGUGAGAACCUGCUAAUACAUCGAUAAGUGA [XVIII]”, in that order: 550 nM, 369 nM, 738 nM, 463 nM and 558 nM.
